The values below come from patent publication US20130243722A1 (NEUMEDICINES, published 2013).

The target in this assay is human IL-12 receptor on human CD14- PBMC (human, UniProt Q99665 24-862). Briefly: cell-based or functional assay.
Chain of human IL-12 receptor on human CD14- PBMC (Q99665 24-862): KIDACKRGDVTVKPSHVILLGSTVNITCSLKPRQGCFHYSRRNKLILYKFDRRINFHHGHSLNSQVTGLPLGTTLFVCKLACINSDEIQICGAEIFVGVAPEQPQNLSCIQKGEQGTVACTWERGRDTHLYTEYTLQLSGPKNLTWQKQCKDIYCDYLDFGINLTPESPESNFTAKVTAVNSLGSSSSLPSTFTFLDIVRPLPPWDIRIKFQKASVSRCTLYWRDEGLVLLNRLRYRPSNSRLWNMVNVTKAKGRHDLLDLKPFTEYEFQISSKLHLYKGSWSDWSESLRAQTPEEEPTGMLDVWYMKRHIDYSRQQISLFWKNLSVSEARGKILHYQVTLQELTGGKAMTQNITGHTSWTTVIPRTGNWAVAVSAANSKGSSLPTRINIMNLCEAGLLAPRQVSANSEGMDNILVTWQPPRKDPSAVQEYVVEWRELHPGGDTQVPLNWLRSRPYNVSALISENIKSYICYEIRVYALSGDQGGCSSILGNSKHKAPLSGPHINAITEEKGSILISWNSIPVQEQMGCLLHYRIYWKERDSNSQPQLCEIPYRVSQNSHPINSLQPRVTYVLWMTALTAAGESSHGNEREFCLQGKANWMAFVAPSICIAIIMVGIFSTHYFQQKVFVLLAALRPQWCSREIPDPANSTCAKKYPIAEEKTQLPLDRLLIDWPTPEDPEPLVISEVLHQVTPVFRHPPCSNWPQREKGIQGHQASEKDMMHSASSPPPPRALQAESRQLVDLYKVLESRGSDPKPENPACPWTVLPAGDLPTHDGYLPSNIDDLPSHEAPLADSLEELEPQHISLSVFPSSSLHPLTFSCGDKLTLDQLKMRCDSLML

B1: recombinant human IL-12 (ligand)
chain 1: RNLPVATPDPGMFPCLHHSQNLLRAVSNMLQKARQTLEFYPCTSEEIDHEDITKDKTSTVEACLPLELTKNESCLNSRETSFITNGSCLASRKTSFMMALCLSSIYEDLKMYQVEFKTMNAKLLMDPKRQIFLDQNMLAVIDELMQALNFNSETVPQKSSLEEPDFYKTKIKLCILLHAFRIRAVTIDRVMSYLNAS
chain 2: IWELKKDVYVVELDWYPDAPGEMVVLTCDTPEEDGITWTLDQSSEVLGSGKTLTIQVKEFGDAGQYTCHKGGEVLSHSLLLLHKKEDGIWSTDILKDQKEPKNKTFLRCEAKNYSGRFTCWWLTTISTDLTFSVKSSRGSSDPQGVTCGAATLSAERVRGDNKEYEYSVECQEDSACPAAEESLPIEVMVDAVHKLKYENYTSSFFIRDIIKPDPPKNLQLKPLKNSRQVEVSWEYPDTWSTPHSYFSLTFCVQVQGKSKREKKDRVFTDKTSATVICRKNASISVRAQDRYYSSSWSEWASVPCS
In the case of B1, the “EC50 for stimulating IFN-γ secretion from CD14- PBMC (ELISA, 16 hours)” value amounted to 2.51 pM.
